Legend:
[1] = biological target: T1, Hla蛋白 (Staphylococcus aureus)
[2] = biological target: T1, Hla蛋白; remark: listed apart in the source

T1 sequence (Q2G1X0 27-319 limits assumed): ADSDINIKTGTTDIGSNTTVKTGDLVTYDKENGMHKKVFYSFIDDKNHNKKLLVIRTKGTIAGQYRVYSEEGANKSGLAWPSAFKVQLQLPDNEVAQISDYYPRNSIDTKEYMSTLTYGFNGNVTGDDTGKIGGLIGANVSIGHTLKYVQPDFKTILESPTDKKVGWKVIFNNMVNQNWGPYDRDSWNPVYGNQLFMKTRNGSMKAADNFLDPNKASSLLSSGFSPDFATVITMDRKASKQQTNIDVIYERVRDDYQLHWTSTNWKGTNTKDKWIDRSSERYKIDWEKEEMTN

B1: AAH-1抗体 (antibody, V domains shown)
VH: QMQLVQSGAEIRRPGSLVKVSCQASGGSFKNFALNWVRQAPGLGLQWMGSITPFLNVPTYAQQFQGRVTMSTDTSTSTAYMVLRRLTSDDTAVYYCARGNSLLDYWGQGTLVTVSS
VL: EIVLTQSPATLSVSPGDGATLSCRASQSVSGNLAWYQKKPGQAPRLLIYDTSIRAAGVPPRFSGSGSGTEFTLTISSLQSEDFAVYYCQQYHNLPPLTFGPGTKLEIK
B1 showed an EC50 [1] of 0.075 µg/mL, a Kd [2] of 1.92 nM and a koff [2] of 0.000255 s⁻¹. For the same binder, the kon [2] was 133000 M⁻¹ s⁻¹.
